9 sequences from the DeepSol protein solubility set can be followed below.

The data set is described as follows: soluble on expression in E. coli; label from the status in PepcDB or PDB records.
As to “MSLTAAVRHSDVLVVGAGSAGSVVAERLSMDSSCVVTVLEAGPGLADPGLLAQTANGLQLPIGAGSPLVERYRTRLTDRPVRHLPIVRGATVGGSGAINGGYFCRGLPSDFDRASIPGWAWSDVLEHFRAIETDLDFETPVHGRSGPIPVRRTHEMTGITESFMAAAEDAGFAWIADLNDVGPEMPSGVGAVPLNIVNGVRTSSAVGYLMPALGRPNLTLLARTRAVRLRFSATTAVGVDAIGPGGPVSLSADRIVLCAGAIQSAHLLMLSGVGEEEVLRSAGVKVLMALPVGMGCSDHPEWVMPTNWAVAVDRPVLEVLLSTHDGIEIRPYTGGFVAMTGDGTAGHRDWPHIGVALMQPRARGRITLVSSDPQIPVRIEHRYDSEPADVAALRQGSALAHELCGAATRIGPAVWATSQHLCGSAPMGTDDDPRAVVDPRCRVRGIENLWVIDGSVLPSITSRGPHATIVMLGHRAAEFVQEGHHHHHH”, the “soluble on expression in E. coli” value was “soluble”.

For “SAANVAHGLQQNVLYVDSNGGLTASRLLQLLQAKTQDEEEQAEALRRIQVVHAFDIFQMLDVLQELRGTVAQQVTGSSGTVKVVVVDSVTAVVSPLLGGQQREGLALMMQLARELKTLARDLGMAVVVTNHITRDRDSGRLKPALGRSWSFVPSTRILLDTIEGAGASGGRRMACLAKSSRQPTGFQEMVDIGTWGTSEQSATLQGDQT”, the “soluble on expression in E. coli” value was “soluble”.

“MTTAVARLQPSASGAKTRPVFPFSAIVGQEDMKLALLLTAVDPGIGGVLVFGDRGTGKSTAVRALAALLPEIEAVEGCPVSSPNVEMIPDWATVLSTNVIRKPTPVVDLPLGVSEDRVVGALDIERAISKGEKAFEPGLLARANRGYLYIDECNLLEDHIVDLLLDVAQSGENVVERDGLSIRHPARFVLVGSGNPEEGDLRPQLLDRFGLSVEVLSPRDVETRVEVIRRRDTYDADPKAFLEEWRPKDMDIRNQILEARERLPKVEAPNTALYDCAALCIALGSDGLRGELTLLRSARALAALEGATAVGRDHLKRVATMALSHRLRRDPLDEAGSTARVARTVEETLP”: the “soluble on expression in E. coli” value is reported as “soluble”.

As for “MIRFEHVSKAYLGGRQALQGVTFHMRPGEMAFLTGHSGAGKSTLLKLICGIERPSAGKIFFSGHDITRLKNREVPFLRRQIGMIFQDHHLLMDRTVYDNVAIPLIIAGASGDDIRRRVSAALDKVGLLDKARNFPIQLSGGEQQRVGIARAVVNKPAVLLADEPTGNLDDALSEGILRLFEEFNRVGVTVLMATHDIGLISRRSYRQLVLSDGHLHGGLANE”, the “soluble on expression in E. coli” value is listed as “not soluble”.

Consider “MKKALLVVSFGTSYHDTCEKNIVACERDLAASCPDRDLFRAFTSGMIIRKLRQRDGIDIDTPLQALQKLAAQGYQDVAIQSLHIINGDEYEKIVREVQLLRPLFTRLTLGVPLLSSHNDYVQLMQALRQQMPSLRQTEKVVFMGHGASHHAFAAYACLDHMMTAQRFPARVGAVESYPEVDILIDSLRDEGVTGVHLMPLMLVAGDHAINDMASDDGDSWKMRFNAAGIPATPWLSGLGENPAIRAMFVAHLHQALNMAVEEAA”, for which the “soluble on expression in E. coli” value is reported as “soluble”.

For the sequence “MTKDQRRSLTKKALLDALVICLKDQDFNEITTIRLVQTAGISRSSFYTHYKDKFEMIDSYQKELFHKLEYIFDKYEGKKEGAFLEIFEILTREKLLSALLSTNGAKEIQDFLINKLQRMIAKDFIDPTAEKRALKGFEKDYASIYLAHAIFGACQAWIKNGKKESPQEMTDFLLRFIPQ”, the “soluble on expression in E. coli” value is given as “not soluble”.

In the case of “MAHNNYLDLEMLFNECNAQHYENLGMFFKWLQQFAAHHEDPKITIKDFKGDKTSGEMILHVNTFTLFKYRQEFDMKVSALNDNGLGWKILFVDRSLGCN”, the “soluble on expression in E. coli” value is listed as “not soluble”.

For the sequence “MGSDKIHHHHHHMKKTERINDMLIFLNNKRYFNLKDLMVRYDISKSTALRDIQSLEEIGVPIYSELGRNGSYKIIENSVLSPIYFSVDEMYALYFSILTLNGYKTKPFNIESIALENKFKHVLPDNVRKNIAIMERTLSFEVTNHSNFSPFLKEILQGIFAERVYHLTYLKKDVEKALIAQFIRIESKFGQWYAKIFNFETNNVQIIRCDKILSIVETSNTKPKNLEELLNYLATFHRKPDAIDFIVIVNQRGKDIFDKENYPSMRIQKENEHYIITGYFNKQEVDLSRTIF”, the “soluble on expression in E. coli” value was “not soluble”.

In the case of “MMGVKAEALTGGFSSAVFDSQRIFKKLMDGMARPGTPQTIETAVAPPLPLAAATGAVLLALCDHDTPVWLNGALRKTAVPGWIGFHTGAPATEEKGAAHFAVIEAGSAIASFGLFAQGSQEYPDRSTTLIIELSDLDGGRELLLSGPGIRHVNIISPSGLPDIFPMLWAENNAIFPRGVDVILTAGDKFVCLPRTTRIKPVEA”, the “soluble on expression in E. coli” value is reported as “not soluble”.
